Here are results for 1 protein from publication PMC4872226, “A rationally engineered yeast pyruvyltransferase Pvg1p introduces sialylation-like properties in neo-human-type complex oligosaccharide” (Scientific Reports, 2016).

This data set concerns the molecule itself. The experiment in a line: crystal structure; hanging-drop vapor diffusion at 20 °C; 10 mg/mL Pvg1p in 100 mM MOPS-NaOH pH 7.4 with 20 mM PEP and 5 mM pNP-β-Gal; well solution with 10 mM zinc chloride; 2.46 Å; dimer in the asymmetric unit.

B1: fission yeast pyruvyltransferase Pvg1p (enzyme, Schizosaccharomyces pombe, UniProt Q9UT27 32-401, looked up)
chain: DLQTLKNPSSLTSPSSSTSVDKKKPLFTKSPRNSASCESTITLQSNLLFTYYKHYFAGIKKVALIGFPDHPNKGDSAIYVAEKKLLDALNIEVVYITAQEADYSASELKSIISDIPRDEFALAFHGGGNFGDLYPDHQHLRELVVRDFPSFTTISFPQSVWYNEQQLLEQASILYAENPNITLVTRDRQSYGFAVDAFGKHNEVLLTPDIVFFMGPIPEIREATPITHDVLILARLDHEGGQQHGAEDYYRDTLNAANLTYSVEDWLLWDPPVAQNPDSSFDDRGQARYEAGAEFLASARVVITDRLHAHILSTLMGIPHIVVENSQMGKITNYHNTWLHGCTLDGVSVVVDSVDKALSLLLEWNEAGYF
notes: Pvg1p, pyruvyltransferase of Schizosaccharomyces pombe; the D32-F401 portion (without the predicted N-terminal transmembrane region) was used for crystallization; disulfide bond C68-C373 seen in the crystal structure; Expression plasmid pET32b-pvg1; also called recombinant Pvg1p
B1: the stoichiometry N (as a rule, a count of units in the complex or per binding partner) amounted to 2.
